B1: FVIIa variant Q366D (enzyme)
chain: ANAFLEELRPGSLERECKEEQCSFEEAREIFKDAERTKLFWISYSDGDQCASSPCQNGGSCKDQLQSYICFCLPAFEGRNCETHKDDQLICVNENGGCEQYCSDHTGTKRSCRCHEGYSLLADGVSCTPTVEYPCGKIPILEKRNASKPQGRIVGGKVCPKGECPWQVLLLVNGAQLCGGTLINTIWVVSAAHCFDKIKNWRNLIAVLGEHDLSEHDGDEQSRRVAQVIIPSTYVPGTTNHDIALLRLHQPVVLTDHVVPLCLPERTFSERTLAFVRFSLVSGWGQLLDRGATALELMVLNVPRLMTQDCLQQSRKVGDSPNITEYMFCAGYSDGSKDSCKGDSGGPHATHYRGTWYLTGIVSWGDGCATVGHFGVYTRVSQYIEWLQKLMRSEPRPGVLLRAPFP
B2: FVIIa variant Q366S (enzyme)
chain: ANAFLEELRPGSLERECKEEQCSFEEAREIFKDAERTKLFWISYSDGDQCASSPCQNGGSCKDQLQSYICFCLPAFEGRNCETHKDDQLICVNENGGCEQYCSDHTGTKRSCRCHEGYSLLADGVSCTPTVEYPCGKIPILEKRNASKPQGRIVGGKVCPKGECPWQVLLLVNGAQLCGGTLINTIWVVSAAHCFDKIKNWRNLIAVLGEHDLSEHDGDEQSRRVAQVIIPSTYVPGTTNHDIALLRLHQPVVLTDHVVPLCLPERTFSERTLAFVRFSLVSGWGQLLDRGATALELMVLNVPRLMTQDCLQQSRKVGDSPNITEYMFCAGYSDGSKDSCKGDSGGPHATHYRGTWYLTGIVSWGSGCATVGHFGVYTRVSQYIEWLQKLMRSEPRPGVLLRAPFP
B3: FVIIa variant Q366N (enzyme)
chain: ANAFLEELRPGSLERECKEEQCSFEEAREIFKDAERTKLFWISYSDGDQCASSPCQNGGSCKDQLQSYICFCLPAFEGRNCETHKDDQLICVNENGGCEQYCSDHTGTKRSCRCHEGYSLLADGVSCTPTVEYPCGKIPILEKRNASKPQGRIVGGKVCPKGECPWQVLLLVNGAQLCGGTLINTIWVVSAAHCFDKIKNWRNLIAVLGEHDLSEHDGDEQSRRVAQVIIPSTYVPGTTNHDIALLRLHQPVVLTDHVVPLCLPERTFSERTLAFVRFSLVSGWGQLLDRGATALELMVLNVPRLMTQDCLQQSRKVGDSPNITEYMFCAGYSDGSKDSCKGDSGGPHATHYRGTWYLTGIVSWGNGCATVGHFGVYTRVSQYIEWLQKLMRSEPRPGVLLRAPFP
B4: FVIIa variant Q366T (enzyme)
chain: ANAFLEELRPGSLERECKEEQCSFEEAREIFKDAERTKLFWISYSDGDQCASSPCQNGGSCKDQLQSYICFCLPAFEGRNCETHKDDQLICVNENGGCEQYCSDHTGTKRSCRCHEGYSLLADGVSCTPTVEYPCGKIPILEKRNASKPQGRIVGGKVCPKGECPWQVLLLVNGAQLCGGTLINTIWVVSAAHCFDKIKNWRNLIAVLGEHDLSEHDGDEQSRRVAQVIIPSTYVPGTTNHDIALLRLHQPVVLTDHVVPLCLPERTFSERTLAFVRFSLVSGWGQLLDRGATALELMVLNVPRLMTQDCLQQSRKVGDSPNITEYMFCAGYSDGSKDSCKGDSGGPHATHYRGTWYLTGIVSWGTGCATVGHFGVYTRVSQYIEWLQKLMRSEPRPGVLLRAPFP
B5: FVIIa variant T130N/E132S (enzyme)
chain: ANAFLEELRPGSLERECKEEQCSFEEAREIFKDAERTKLFWISYSDGDQCASSPCQNGGSCKDQLQSYICFCLPAFEGRNCETHKDDQLICVNENGGCEQYCSDHTGTKRSCRCHEGYSLLADGVSCTPNVSYPCGKIPILEKRNASKPQGRIVGGKVCPKGECPWQVLLLVNGAQLCGGTLINTIWVVSAAHCFDKIKNWRNLIAVLGEHDLSEHDGDEQSRRVAQVIIPSTYVPGTTNHDIALLRLHQPVVLTDHVVPLCLPERTFSERTLAFVRFSLVSGWGQLLDRGATALELMVLNVPRLMTQDCLQQSRKVGDSPNITEYMFCAGYSDGSKDSCKGDSGGPHATHYRGTWYLTGIVSWGQGCATVGHFGVYTRVSQYIEWLQKLMRSEPRPGVLLRAPFP
B6: FVIIa variant A175S (enzyme)
chain: ANAFLEELRPGSLERECKEEQCSFEEAREIFKDAERTKLFWISYSDGDQCASSPCQNGGSCKDQLQSYICFCLPAFEGRNCETHKDDQLICVNENGGCEQYCSDHTGTKRSCRCHEGYSLLADGVSCTPTVEYPCGKIPILEKRNASKPQGRIVGGKVCPKGECPWQVLLLVNGSQLCGGTLINTIWVVSAAHCFDKIKNWRNLIAVLGEHDLSEHDGDEQSRRVAQVIIPSTYVPGTTNHDIALLRLHQPVVLTDHVVPLCLPERTFSERTLAFVRFSLVSGWGQLLDRGATALELMVLNVPRLMTQDCLQQSRKVGDSPNITEYMFCAGYSDGSKDSCKGDSGGPHATHYRGTWYLTGIVSWGQGCATVGHFGVYTRVSQYIEWLQKLMRSEPRPGVLLRAPFP
B7: FVIIa variant G318N (enzyme)
chain: ANAFLEELRPGSLERECKEEQCSFEEAREIFKDAERTKLFWISYSDGDQCASSPCQNGGSCKDQLQSYICFCLPAFEGRNCETHKDDQLICVNENGGCEQYCSDHTGTKRSCRCHEGYSLLADGVSCTPTVEYPCGKIPILEKRNASKPQGRIVGGKVCPKGECPWQVLLLVNGAQLCGGTLINTIWVVSAAHCFDKIKNWRNLIAVLGEHDLSEHDGDEQSRRVAQVIIPSTYVPGTTNHDIALLRLHQPVVLTDHVVPLCLPERTFSERTLAFVRFSLVSGWGQLLDRGATALELMVLNVPRLMTQDCLQQSRKVNDSPNITEYMFCAGYSDGSKDSCKGDSGGPHATHYRGTWYLTGIVSWGQGCATVGHFGVYTRVSQYIEWLQKLMRSEPRPGVLLRAPFP
B8: FVIIa variant Q366V (enzyme)
chain: ANAFLEELRPGSLERECKEEQCSFEEAREIFKDAERTKLFWISYSDGDQCASSPCQNGGSCKDQLQSYICFCLPAFEGRNCETHKDDQLICVNENGGCEQYCSDHTGTKRSCRCHEGYSLLADGVSCTPTVEYPCGKIPILEKRNASKPQGRIVGGKVCPKGECPWQVLLLVNGAQLCGGTLINTIWVVSAAHCFDKIKNWRNLIAVLGEHDLSEHDGDEQSRRVAQVIIPSTYVPGTTNHDIALLRLHQPVVLTDHVVPLCLPERTFSERTLAFVRFSLVSGWGQLLDRGATALELMVLNVPRLMTQDCLQQSRKVGDSPNITEYMFCAGYSDGSKDSCKGDSGGPHATHYRGTWYLTGIVSWGVGCATVGHFGVYTRVSQYIEWLQKLMRSEPRPGVLLRAPFP
B9: FVIIa variant R202S (enzyme)
chain: ANAFLEELRPGSLERECKEEQCSFEEAREIFKDAERTKLFWISYSDGDQCASSPCQNGGSCKDQLQSYICFCLPAFEGRNCETHKDDQLICVNENGGCEQYCSDHTGTKRSCRCHEGYSLLADGVSCTPTVEYPCGKIPILEKRNASKPQGRIVGGKVCPKGECPWQVLLLVNGAQLCGGTLINTIWVVSAAHCFDKIKNWSNLIAVLGEHDLSEHDGDEQSRRVAQVIIPSTYVPGTTNHDIALLRLHQPVVLTDHVVPLCLPERTFSERTLAFVRFSLVSGWGQLLDRGATALELMVLNVPRLMTQDCLQQSRKVGDSPNITEYMFCAGYSDGSKDSCKGDSGGPHATHYRGTWYLTGIVSWGQGCATVGHFGVYTRVSQYIEWLQKLMRSEPRPGVLLRAPFP
B10: FVIIa variant A292N/A294S (enzyme)
chain: ANAFLEELRPGSLERECKEEQCSFEEAREIFKDAERTKLFWISYSDGDQCASSPCQNGGSCKDQLQSYICFCLPAFEGRNCETHKDDQLICVNENGGCEQYCSDHTGTKRSCRCHEGYSLLADGVSCTPTVEYPCGKIPILEKRNASKPQGRIVGGKVCPKGECPWQVLLLVNGAQLCGGTLINTIWVVSAAHCFDKIKNWRNLIAVLGEHDLSEHDGDEQSRRVAQVIIPSTYVPGTTNHDIALLRLHQPVVLTDHVVPLCLPERTFSERTLAFVRFSLVSGWGQLLDRGNTSLELMVLNVPRLMTQDCLQQSRKVGDSPNITEYMFCAGYSDGSKDSCKGDSGGPHATHYRGTWYLTGIVSWGQGCATVGHFGVYTRVSQYIEWLQKLMRSEPRPGVLLRAPFP
B11: FVIIa variant E394N/P395A/R396S (enzyme)
chain: ANAFLEELRPGSLERECKEEQCSFEEAREIFKDAERTKLFWISYSDGDQCASSPCQNGGSCKDQLQSYICFCLPAFEGRNCETHKDDQLICVNENGGCEQYCSDHTGTKRSCRCHEGYSLLADGVSCTPTVEYPCGKIPILEKRNASKPQGRIVGGKVCPKGECPWQVLLLVNGAQLCGGTLINTIWVVSAAHCFDKIKNWRNLIAVLGEHDLSEHDGDEQSRRVAQVIIPSTYVPGTTNHDIALLRLHQPVVLTDHVVPLCLPERTFSERTLAFVRFSLVSGWGQLLDRGATALELMVLNVPRLMTQDCLQQSRKVGDSPNITEYMFCAGYSDGSKDSCKGDSGGPHATHYRGTWYLTGIVSWGQGCATVGHFGVYTRVSQYIEWLQKLMRSNASPGVLLRAPFP
B12: FVIIa variant A122N/G124S (enzyme)
chain: ANAFLEELRPGSLERECKEEQCSFEEAREIFKDAERTKLFWISYSDGDQCASSPCQNGGSCKDQLQSYICFCLPAFEGRNCETHKDDQLICVNENGGCEQYCSDHTGTKRSCRCHEGYSLLNDSVSCTPTVEYPCGKIPILEKRNASKPQGRIVGGKVCPKGECPWQVLLLVNGAQLCGGTLINTIWVVSAAHCFDKIKNWRNLIAVLGEHDLSEHDGDEQSRRVAQVIIPSTYVPGTTNHDIALLRLHQPVVLTDHVVPLCLPERTFSERTLAFVRFSLVSGWGQLLDRGATALELMVLNVPRLMTQDCLQQSRKVGDSPNITEYMFCAGYSDGSKDSCKGDSGGPHATHYRGTWYLTGIVSWGQGCATVGHFGVYTRVSQYIEWLQKLMRSEPRPGVLLRAPFP
B13: FVIIa variant Q366E (enzyme)
chain: ANAFLEELRPGSLERECKEEQCSFEEAREIFKDAERTKLFWISYSDGDQCASSPCQNGGSCKDQLQSYICFCLPAFEGRNCETHKDDQLICVNENGGCEQYCSDHTGTKRSCRCHEGYSLLADGVSCTPTVEYPCGKIPILEKRNASKPQGRIVGGKVCPKGECPWQVLLLVNGAQLCGGTLINTIWVVSAAHCFDKIKNWRNLIAVLGEHDLSEHDGDEQSRRVAQVIIPSTYVPGTTNHDIALLRLHQPVVLTDHVVPLCLPERTFSERTLAFVRFSLVSGWGQLLDRGATALELMVLNVPRLMTQDCLQQSRKVGDSPNITEYMFCAGYSDGSKDSCKGDSGGPHATHYRGTWYLTGIVSWGEGCATVGHFGVYTRVSQYIEWLQKLMRSEPRPGVLLRAPFP

For this experiment, the target named is Factor X (FX) (Homo sapiens (Human)) (UniProt P00742).
Factor X (FX) (Homo sapiens (Human)), sequence (P00742 41-488 limits assumed): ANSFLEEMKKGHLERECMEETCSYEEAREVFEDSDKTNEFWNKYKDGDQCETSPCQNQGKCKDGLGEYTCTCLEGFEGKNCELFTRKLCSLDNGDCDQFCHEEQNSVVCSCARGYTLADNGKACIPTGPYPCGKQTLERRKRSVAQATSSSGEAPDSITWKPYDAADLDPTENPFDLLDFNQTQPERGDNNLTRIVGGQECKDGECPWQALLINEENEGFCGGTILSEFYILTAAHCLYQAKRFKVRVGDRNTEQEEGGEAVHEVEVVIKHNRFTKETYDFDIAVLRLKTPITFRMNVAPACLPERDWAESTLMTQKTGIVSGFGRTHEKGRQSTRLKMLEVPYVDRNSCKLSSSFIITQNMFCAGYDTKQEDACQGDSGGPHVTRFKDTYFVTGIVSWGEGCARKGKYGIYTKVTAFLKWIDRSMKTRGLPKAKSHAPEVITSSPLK
Regarding B1, the kcat/KM, TF-Dependent Indirect Assay was 1.88e+07 M⁻¹ s⁻¹. Turning to B2, the kcat/KM, TF-Dependent Indirect Assay came to 2.7e+07 M⁻¹ s⁻¹. To B3 belongs 5.64e+07 M⁻¹ s⁻¹; to B4, 3.42e+07 M⁻¹ s⁻¹; to B5, 6.35e+07 M⁻¹ s⁻¹. Regarding B6, the kcat/KM, TF-Dependent Indirect Assay came to 3.32e+07 M⁻¹ s⁻¹. As to B7, the kcat/KM, TF-Dependent Indirect Assay was 5.5e+07 M⁻¹ s⁻¹. On to B8, for which the kcat/KM, TF-Dependent Indirect Assay worked out at 6.59e+07 M⁻¹ s⁻¹.

Consider B9, for which the kcat/KM, TF-Dependent Indirect Assay was determined as 2.57e+07 M⁻¹ s⁻¹. Consider B10, for which the kcat/KM, TF-Dependent Indirect Assay is 0 M⁻¹ s⁻¹.

As to B11, the kcat/KM, TF-Dependent Indirect Assay was found to be 5.32e+07 M⁻¹ s⁻¹. Consider B12, for which the kcat/KM, TF-Dependent Indirect Assay stood at 5.27e+07 M⁻¹ s⁻¹. B13: the kcat/KM, TF-Dependent Indirect Assay was 4.77e+07 M⁻¹ s⁻¹.

The values above are taken from patent publication US20090291890A1 (published 2009).
